Experimental data as given in the Human Domainome abundance scans (Beltran et al. 2025).
± gives the uncertainty stated by the source.

Test: abundance fitness (aPCA) (normalised: wild type 0, dead -1); higher = more abundant; growth selection in yeast, the domain comes from the species named
Conditions: Homo sapiens

| Substance | abundance fitness |
| --- | --- |
| NEDD4-like E3 ubiquitin-protein ligase WWP2 S456V, O00308 | -0.208 ± 0.059 |
| NEDD4-like E3 ubiquitin-protein ligase WWP2 S456W, O00308 | -0.192 ± 0.047 |
| NEDD4-like E3 ubiquitin-protein ligase WWP2 S456Y, O00308 | -0.589 ± 0.12 |
| NEDD4-like E3 ubiquitin-protein ligase WWP2 S481A, O00308 | 0 ± 0.061 |
| NEDD4-like E3 ubiquitin-protein ligase WWP2 S481C, O00308 | -0.054 ± 0.061 |
| NEDD4-like E3 ubiquitin-protein ligase WWP2 S481D, O00308 | 0.01 ± 0.037 |
| NEDD4-like E3 ubiquitin-protein ligase WWP2 S481E, O00308 | 0.022 ± 0.071 |
| NEDD4-like E3 ubiquitin-protein ligase WWP2 S481F, O00308 | -0.039 ± 0.062 |
| NEDD4-like E3 ubiquitin-protein ligase WWP2 S481G, O00308 | -0.032 ± 0.047 |
| NEDD4-like E3 ubiquitin-protein ligase WWP2 S481H, O00308 | -0.17 ± 0.08 |
| NEDD4-like E3 ubiquitin-protein ligase WWP2 S481I, O00308 | -0.047 ± 0.067 |
| NEDD4-like E3 ubiquitin-protein ligase WWP2 S481K, O00308 | -0.072 ± 0.049 |
| NEDD4-like E3 ubiquitin-protein ligase WWP2 S481L, O00308 | -0.081 ± 0.053 |
| NEDD4-like E3 ubiquitin-protein ligase WWP2 S481N, O00308 | -0.062 ± 0.054 |
| NEDD4-like E3 ubiquitin-protein ligase WWP2 S481P, O00308 | 0.003 ± 0.049 |
| NEDD4-like E3 ubiquitin-protein ligase WWP2 S481Q, O00308 | -0.014 ± 0.039 |
| NEDD4-like E3 ubiquitin-protein ligase WWP2 S481R, O00308 | -0.042 ± 0.034 |
| NEDD4-like E3 ubiquitin-protein ligase WWP2 S481T, O00308 | 0.029 ± 0.047 |
| NEDD4-like E3 ubiquitin-protein ligase WWP2 S481V, O00308 | -0.151 ± 0.056 |
| NEDD4-like E3 ubiquitin-protein ligase WWP2 S481W, O00308 | -0.09 ± 0.035 |
| NEDD4-like E3 ubiquitin-protein ligase WWP2 S481Y, O00308 | -0.102 ± 0.063 |
| NEDD4-like E3 ubiquitin-protein ligase WWP2 S487A, O00308 | -0.034 ± 0.055 |

| Substance | abundance fitness |
| --- | --- |
| NEDD4-like E3 ubiquitin-protein ligase WWP2 S487C, O00308 | -0.032 ± 0.04 |
| NEDD4-like E3 ubiquitin-protein ligase WWP2 S487D, O00308 | 0.013 ± 0.036 |
| NEDD4-like E3 ubiquitin-protein ligase WWP2 S487E, O00308 | 0.025 ± 0.034 |
| NEDD4-like E3 ubiquitin-protein ligase WWP2 S487F, O00308 | -0.112 ± 0.057 |
| NEDD4-like E3 ubiquitin-protein ligase WWP2 S487G, O00308 | -0.03 ± 0.034 |
| NEDD4-like E3 ubiquitin-protein ligase WWP2 S487H, O00308 | 0.111 ± 0.073 |
| NEDD4-like E3 ubiquitin-protein ligase WWP2 S487I, O00308 | -0.038 ± 0.074 |
| NEDD4-like E3 ubiquitin-protein ligase WWP2 S487K, O00308 | 0.016 ± 0.038 |
| NEDD4-like E3 ubiquitin-protein ligase WWP2 S487L, O00308 | -0.067 ± 0.04 |
| NEDD4-like E3 ubiquitin-protein ligase WWP2 S487M, O00308 | -0.024 ± 0.057 |
| NEDD4-like E3 ubiquitin-protein ligase WWP2 S487N, O00308 | -0.034 ± 0.04 |
| NEDD4-like E3 ubiquitin-protein ligase WWP2 S487Q, O00308 | -0.024 ± 0.061 |
| NEDD4-like E3 ubiquitin-protein ligase WWP2 S487R, O00308 | -0.006 ± 0.034 |
| NEDD4-like E3 ubiquitin-protein ligase WWP2 S487T, O00308 | 0.058 ± 0.059 |
| NEDD4-like E3 ubiquitin-protein ligase WWP2 S487V, O00308 | -0.034 ± 0.035 |
| NEDD4-like E3 ubiquitin-protein ligase WWP2 S487W, O00308 | -0.149 ± 0.05 |
| NEDD4-like E3 ubiquitin-protein ligase WWP2 T455A, O00308 | -0.659 ± 0.061 |
| NEDD4-like E3 ubiquitin-protein ligase WWP2 T455C, O00308 | -0.339 ± 0.068 |
| NEDD4-like E3 ubiquitin-protein ligase WWP2 T455E, O00308 | -0.563 ± 0.18 |
| NEDD4-like E3 ubiquitin-protein ligase WWP2 T455F, O00308 | -0.912 ± 0.14 |
| NEDD4-like E3 ubiquitin-protein ligase WWP2 T455G, O00308 | -0.379 ± 0.045 |
| NEDD4-like E3 ubiquitin-protein ligase WWP2 T455I, O00308 | -0.529 ± 0.08 |

| Substance | abundance fitness |
| --- | --- |
| NEDD4-like E3 ubiquitin-protein ligase WWP2 T455K, O00308 | -0.628 ± 0.082 |
| NEDD4-like E3 ubiquitin-protein ligase WWP2 T455L, O00308 | -0.258 ± 0.048 |
| NEDD4-like E3 ubiquitin-protein ligase WWP2 T455M, O00308 | -0.415 ± 0.066 |
| NEDD4-like E3 ubiquitin-protein ligase WWP2 T455N, O00308 | -0.147 ± 0.073 |
| NEDD4-like E3 ubiquitin-protein ligase WWP2 T455P, O00308 | -0.968 ± 0.071 |
| NEDD4-like E3 ubiquitin-protein ligase WWP2 T455R, O00308 | -0.762 ± 0.038 |
| NEDD4-like E3 ubiquitin-protein ligase WWP2 T455S, O00308 | -0.115 ± 0.041 |
| NEDD4-like E3 ubiquitin-protein ligase WWP2 T455V, O00308 | -0.678 ± 0.05 |
| NEDD4-like E3 ubiquitin-protein ligase WWP2 T455W, O00308 | -0.866 ± 0.1 |
| NEDD4-like E3 ubiquitin-protein ligase WWP2 T455Y, O00308 | -0.62 ± 0.07 |
| NEDD4-like E3 ubiquitin-protein ligase WWP2 T467A, O00308 | -0.098 ± 0.12 |
| NEDD4-like E3 ubiquitin-protein ligase WWP2 T467I, O00308 | -0.421 ± 0.26 |
| NEDD4-like E3 ubiquitin-protein ligase WWP2 T467R, O00308 | -0.405 ± 0.18 |
| NEDD4-like E3 ubiquitin-protein ligase WWP2 T467S, O00308 | -0.136 ± 0.056 |
| NEDD4-like E3 ubiquitin-protein ligase WWP2 T469C, O00308 | -0.078 ± 0.057 |
| NEDD4-like E3 ubiquitin-protein ligase WWP2 T469D, O00308 | -0.257 ± 0.055 |
| NEDD4-like E3 ubiquitin-protein ligase WWP2 T469E, O00308 | -0.228 ± 0.034 |
| NEDD4-like E3 ubiquitin-protein ligase WWP2 T469F, O00308 | -0.215 ± 0.068 |
| NEDD4-like E3 ubiquitin-protein ligase WWP2 T469G, O00308 | -0.346 ± 0.054 |
| NEDD4-like E3 ubiquitin-protein ligase WWP2 T469H, O00308 | -0.26 ± 0.036 |
| NEDD4-like E3 ubiquitin-protein ligase WWP2 T469M, O00308 | -0.096 ± 0.053 |
| NEDD4-like E3 ubiquitin-protein ligase WWP2 T469N, O00308 | -0.093 ± 0.072 |

| Substance | abundance fitness |
| --- | --- |
| NEDD4-like E3 ubiquitin-protein ligase WWP2 T469P, O00308 | -1.16 ± 0.13 |
| NEDD4-like E3 ubiquitin-protein ligase WWP2 T469Q, O00308 | -0.196 ± 0.06 |
| NEDD4-like E3 ubiquitin-protein ligase WWP2 T469R, O00308 | -0.243 ± 0.038 |
| NEDD4-like E3 ubiquitin-protein ligase WWP2 T469S, O00308 | -0.032 ± 0.041 |
| NEDD4-like E3 ubiquitin-protein ligase WWP2 T469V, O00308 | -0.151 ± 0.038 |
| NEDD4-like E3 ubiquitin-protein ligase WWP2 T469W, O00308 | -0.502 ± 0.036 |
| NEDD4-like E3 ubiquitin-protein ligase WWP2 T469Y, O00308 | -0.264 ± 0.062 |
| NEDD4-like E3 ubiquitin-protein ligase WWP2 T470A, O00308 | -0.265 ± 0.035 |
| NEDD4-like E3 ubiquitin-protein ligase WWP2 T470C, O00308 | -0.164 ± 0.069 |
| NEDD4-like E3 ubiquitin-protein ligase WWP2 T470D, O00308 | -0.653 ± 0.072 |
| NEDD4-like E3 ubiquitin-protein ligase WWP2 T470E, O00308 | -0.218 ± 0.068 |
| NEDD4-like E3 ubiquitin-protein ligase WWP2 T470I, O00308 | -0.734 ± 0.15 |
| NEDD4-like E3 ubiquitin-protein ligase WWP2 T470K, O00308 | -0.356 ± 0.039 |
| NEDD4-like E3 ubiquitin-protein ligase WWP2 T470L, O00308 | -0.437 ± 0.04 |
| NEDD4-like E3 ubiquitin-protein ligase WWP2 T470M, O00308 | -0.398 ± 0.048 |
| NEDD4-like E3 ubiquitin-protein ligase WWP2 T470N, O00308 | -0.383 ± 0.11 |
| NEDD4-like E3 ubiquitin-protein ligase WWP2 T470P, O00308 | -0.906 ± 0.14 |
| NEDD4-like E3 ubiquitin-protein ligase WWP2 T470Q, O00308 | -0.42 ± 0.056 |
| NEDD4-like E3 ubiquitin-protein ligase WWP2 T470R, O00308 | -0.446 ± 0.044 |
| NEDD4-like E3 ubiquitin-protein ligase WWP2 T470S, O00308 | -0.234 ± 0.036 |
| NEDD4-like E3 ubiquitin-protein ligase WWP2 T470V, O00308 | -0.263 ± 0.046 |
| NEDD4-like E3 ubiquitin-protein ligase WWP2 T470Y, O00308 | -0.772 ± 0.12 |
